Reference: paper PMC9886945

Experiments:
[1] = target: Mtb RNAP holoenzyme with σ^B in which residues 252-323 (subregion 4.2) are deleted (M. tuberculosis) (UniProt P9WGZ1); experiment: negative stain EM
[2] = target: Mtb RNAP holoenzyme with σ^B in which residues 252-323 (subregion 4.2) are deleted (M. tuberculosis) (UniProt P9WGZ1); experiment: SEC

Q: With “Mtb RNAP holoenzyme with σ^B in which residues 252-323 (subregion 4.2) are deleted, P9WGZ1;P9WGY9;P9WGY7;P9WGY5;P9WGI5” as the substance, how does the stoichiometry N [1] read?
A: The stoichiometry N was 8.

Q: And the stoichiometry N [2]?
A: The stoichiometry N was 8.
